Data from US20230256017A1, “METHODS OF MAKING CHIMERIC ANTIGEN RECEPTOR-EXPRESSING CELLS” (Novartis AG, priority 2020, published 2023).

Test system: T cells
Experiment: T cell expansion with cytokines after TCR stimulation (cell surface staining)
Assay type: cell-based
Conditions: αCD3/αCD28 beads plus indicated cytokine
Method: Previously frozen T cells were thawed and contacted with αCD3/αCD28 dynal beads (cell to bead ratio of 1 to 3) in the presence of indicated cytokines at day 0. From day 3, twice more T cell growth media (RPMI1640, 10% FBS, 2 mM L-glutamin, 100 µM non-essential amino acids, 1 mM sodium pyruvate, 10 mM Hepes, 55 µM β-mercaptoethanol, 10% FBS, and 100 U/ml of penicillin-streptomycin) was added to the plate with indicated cytokines (without cytokine, rhIL2 (50 IU/ml, Novartis), IL6 (10 ng/ml, R&D systems), IL7 (10 ng/ml, Peprotech), IL15 (10 ng/ml, Peprotech), and IL21 (10 ng/ml, Peprotech)) at day 3, 5, 6, 9, 12, 15, and 18.
Cells were harvested at indicated time points and then stained with live/dead dye (eFluro780, eBioscience), CD3 (BioLegend, clone#: OKT3), CD4 (BioLegend, clone#: OKT4), CD8 (BD Bioscience, clone#: RPA-T8), CD45RO (BioLegend, clone#: UCHL1), CCR7 (BioLegend, clone#: G043H7), CD27 (BD Horizon, clone#: L128), CD127 (BioLegend, clone#: A019D5), CD57 (BioLegend, clone#: HCD57), CD126 (BioLegend, clon#: UV4), and CD130 (R&D Systems, clone#: 28126) antibodies. The cells were acquired by FACS Fortessa and then FlowJo program was used for data analysis.

B1: IL7: cytokine present during activation of T cells with αCD3αCD28 beads (protein, UniProt P13232 26-177, looked up)
Interleukin-7: DCDIEGKDGKQYESVLMVSIDQLLDSMKEIGSNCLNNEFNFFKRHICDANKEGMFLFRAARKLRQFLKMNSTGDFDLHLLKVSEGTTILLNCTGQVKGRKPAALGEAQPTKSLEENKSLKEQKKLNDLCFLKRLLQEIKTCWNKILMGTKEH
  T cell expansion: enhanced T cell expansion
